Test results published in PMC11411725.

Target: vCCI (viral CC chemokine inhibitor), wild type, from rabbitpox (rabbitpox), O10647
Assay: SEC-MALS
Settings: remark: other sources report otherwise

B1: CCL17 (CC chemokine ligand 17, TARC), wild type, Q92583 24-94 (ligand)
chain: ARGTNVGRECCLEYFKGAIPLRKLKTWYQTSEDCSRDAIVFVTVQGRAICSDPNNKRVKNAVKYLQSLERS
  stoichiometry N: 1
